# From publication PMC9663165, “Human immunomodulatory ligand B7-1 mediates synaptic remodeling via the p75 neurotrophin receptor” (The Journal of Clinical Investigation, 2022)
# T1: full-length human p75 neurotrophin receptor fused at the cytoplasmic C-terminus to GFP (human, UniProt P08138 29-427)
# T1 construct: As query against the GFP-tagged library it carried the opposite colour tag (mCherry); kept as one molecule; also called p75^NTR; NGFR; source: HEK293 suspension cells, transiently transfected, on cells; not shown: GFP, C-terminal, kept
# T1 sequence (looked up): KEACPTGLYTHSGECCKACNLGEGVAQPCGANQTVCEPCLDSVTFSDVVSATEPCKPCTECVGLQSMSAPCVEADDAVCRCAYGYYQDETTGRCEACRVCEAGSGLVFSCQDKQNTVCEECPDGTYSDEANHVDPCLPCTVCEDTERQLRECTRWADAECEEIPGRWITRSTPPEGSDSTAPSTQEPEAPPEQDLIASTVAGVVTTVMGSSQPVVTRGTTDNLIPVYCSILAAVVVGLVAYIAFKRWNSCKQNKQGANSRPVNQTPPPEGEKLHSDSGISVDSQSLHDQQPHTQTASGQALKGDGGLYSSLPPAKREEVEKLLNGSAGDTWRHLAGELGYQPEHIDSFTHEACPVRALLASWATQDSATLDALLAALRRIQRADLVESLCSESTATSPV
# What was measured:
# [1] = target: T2, CD28-GFP (human, UniProt P10747 19-220); test: flow cytometry on cells; cell-cell conjugates: HEK293F cells expressing 92 B7-1–mCherry point mutants (IgV domain) against HEK293F cells expressing CTLA-4–GFP, CD28-GFP or p75NTR-GFP; percent of WT binding; details: partners not purified
# T2 construct: human CD28, member of the human Ig superfamily library; source: HEK293F, transfected, on cells; not shown: GFP, C-terminal, kept
# [2] = target: T1, full-length human p75 neurotrophin …; test: as above; details: partners not purified
Binder,loss in binding relative to WT [1],loss in binding relative to WT [2]
"hB7-1 E41A–mCherry (ligand, human, UniProt P33681 35-288, looked up, human B7-1 (CD80), point mutant in the IgV domain; source: HEK293F, transfected, on cells) VIHVTKAVKEVATLSCGHNVSVEELAQTRIYWQKEKKMVLTMMSGDMNIWPEYKNRTIFDITNNLSIVILALRPSDEGTYECVVLKYEKDAFKREHLAEVTLSVKADFPTPSISDFEIPTSNIRRIICSTSGGFPEPHLSWLENGEELNAINTTVSQDPETELYAVSSKLDFNMTTNHSFMCLIKYGHLRVNQTFNWNTTKQEHFPDNLLPSWAITLISVNGIFVICCLTYCFAPRCRERRRNERLRRESVRPV",> 25%,–
"hB7-1 E69A–mCherry (ligand, human, UniProt P33681 35-288, looked up, human B7-1 (CD80), point mutant in the IgV domain; source: HEK293F, transfected, on cells) VIHVTKEVKEVATLSCGHNVSVEELAQTRIYWQKAKKMVLTMMSGDMNIWPEYKNRTIFDITNNLSIVILALRPSDEGTYECVVLKYEKDAFKREHLAEVTLSVKADFPTPSISDFEIPTSNIRRIICSTSGGFPEPHLSWLENGEELNAINTTVSQDPETELYAVSSKLDFNMTTNHSFMCLIKYGHLRVNQTFNWNTTKQEHFPDNLLPSWAITLISVNGIFVICCLTYCFAPRCRERRRNERLRRESVRPV",> 25%,–
"hB7-1 I36A–mCherry (ligand, human, UniProt P33681 35-288, looked up, human B7-1 (CD80), point mutant in the IgV domain; source: HEK293F, transfected, on cells) VAHVTKEVKEVATLSCGHNVSVEELAQTRIYWQKEKKMVLTMMSGDMNIWPEYKNRTIFDITNNLSIVILALRPSDEGTYECVVLKYEKDAFKREHLAEVTLSVKADFPTPSISDFEIPTSNIRRIICSTSGGFPEPHLSWLENGEELNAINTTVSQDPETELYAVSSKLDFNMTTNHSFMCLIKYGHLRVNQTFNWNTTKQEHFPDNLLPSWAITLISVNGIFVICCLTYCFAPRCRERRRNERLRRESVRPV",> 25%,–
"hB7-1 I36D–mCherry (ligand, human, UniProt P33681 35-288, looked up, human B7-1 (CD80), point mutant in the IgV domain; source: HEK293F, transfected, on cells) VDHVTKEVKEVATLSCGHNVSVEELAQTRIYWQKEKKMVLTMMSGDMNIWPEYKNRTIFDITNNLSIVILALRPSDEGTYECVVLKYEKDAFKREHLAEVTLSVKADFPTPSISDFEIPTSNIRRIICSTSGGFPEPHLSWLENGEELNAINTTVSQDPETELYAVSSKLDFNMTTNHSFMCLIKYGHLRVNQTFNWNTTKQEHFPDNLLPSWAITLISVNGIFVICCLTYCFAPRCRERRRNERLRRESVRPV",> 25%,> 25%
"hB7-1 K40D–mCherry (ligand, human, UniProt P33681 35-288, looked up, human B7-1 (CD80), point mutant in the IgV domain; printed once as K40D and once as Y40D; also called Y40D; source: HEK293F, transfected, on cells) VIHVTDEVKEVATLSCGHNVSVEELAQTRIYWQKEKKMVLTMMSGDMNIWPEYKNRTIFDITNNLSIVILALRPSDEGTYECVVLKYEKDAFKREHLAEVTLSVKADFPTPSISDFEIPTSNIRRIICSTSGGFPEPHLSWLENGEELNAINTTVSQDPETELYAVSSKLDFNMTTNHSFMCLIKYGHLRVNQTFNWNTTKQEHFPDNLLPSWAITLISVNGIFVICCLTYCFAPRCRERRRNERLRRESVRPV",> 25%,> 25%
"hB7-1 K43D–mCherry (ligand, human, UniProt P33681 35-288, looked up, human B7-1 (CD80), point mutant in the IgV domain; source: HEK293F, transfected, on cells) VIHVTKEVDEVATLSCGHNVSVEELAQTRIYWQKEKKMVLTMMSGDMNIWPEYKNRTIFDITNNLSIVILALRPSDEGTYECVVLKYEKDAFKREHLAEVTLSVKADFPTPSISDFEIPTSNIRRIICSTSGGFPEPHLSWLENGEELNAINTTVSQDPETELYAVSSKLDFNMTTNHSFMCLIKYGHLRVNQTFNWNTTKQEHFPDNLLPSWAITLISVNGIFVICCLTYCFAPRCRERRRNERLRRESVRPV",> 25%,> 25%
"hB7-1 L131D–mCherry (ligand, human, UniProt P33681 35-288, looked up, human B7-1 (CD80), point mutant in the IgV domain; source: HEK293F, transfected, on cells) VIHVTKEVKEVATLSCGHNVSVEELAQTRIYWQKEKKMVLTMMSGDMNIWPEYKNRTIFDITNNLSIVILALRPSDEGTYECVVLKYEKDAFKREHDAEVTLSVKADFPTPSISDFEIPTSNIRRIICSTSGGFPEPHLSWLENGEELNAINTTVSQDPETELYAVSSKLDFNMTTNHSFMCLIKYGHLRVNQTFNWNTTKQEHFPDNLLPSWAITLISVNGIFVICCLTYCFAPRCRERRRNERLRRESVRPV",> 25%,–
"hB7-1 K120D–mCherry (ligand, human, UniProt P33681 35-288, looked up, human B7-1 (CD80), point mutant in the IgV domain; source: HEK293F, transfected, on cells) VIHVTKEVKEVATLSCGHNVSVEELAQTRIYWQKEKKMVLTMMSGDMNIWPEYKNRTIFDITNNLSIVILALRPSDEGTYECVVLDYEKDAFKREHLAEVTLSVKADFPTPSISDFEIPTSNIRRIICSTSGGFPEPHLSWLENGEELNAINTTVSQDPETELYAVSSKLDFNMTTNHSFMCLIKYGHLRVNQTFNWNTTKQEHFPDNLLPSWAITLISVNGIFVICCLTYCFAPRCRERRRNERLRRESVRPV",> 25%,–
"hB7-1 K127D–mCherry (ligand, human, UniProt P33681 35-288, looked up, human B7-1 (CD80), point mutant in the IgV domain; source: HEK293F, transfected, on cells) VIHVTKEVKEVATLSCGHNVSVEELAQTRIYWQKEKKMVLTMMSGDMNIWPEYKNRTIFDITNNLSIVILALRPSDEGTYECVVLKYEKDAFDREHLAEVTLSVKADFPTPSISDFEIPTSNIRRIICSTSGGFPEPHLSWLENGEELNAINTTVSQDPETELYAVSSKLDFNMTTNHSFMCLIKYGHLRVNQTFNWNTTKQEHFPDNLLPSWAITLISVNGIFVICCLTYCFAPRCRERRRNERLRRESVRPV",> 25%,–
"hB7-1 K139D–mCherry (ligand, human, UniProt P33681 35-288, looked up, human B7-1 (CD80), point mutant in the IgV domain; source: HEK293F, transfected, on cells) VIHVTKEVKEVATLSCGHNVSVEELAQTRIYWQKEKKMVLTMMSGDMNIWPEYKNRTIFDITNNLSIVILALRPSDEGTYECVVLKYEKDAFKREHLAEVTLSVDADFPTPSISDFEIPTSNIRRIICSTSGGFPEPHLSWLENGEELNAINTTVSQDPETELYAVSSKLDFNMTTNHSFMCLIKYGHLRVNQTFNWNTTKQEHFPDNLLPSWAITLISVNGIFVICCLTYCFAPRCRERRRNERLRRESVRPV",> 25%,–

# The remaining lines, values ahead:
loss in binding relative to WT [1],loss in binding relative to WT [2],Binder
> 25%,> 25%,"hB7-1 S49A–mCherry (ligand, human, UniProt P33681 35-288, looked up, human B7-1 (CD80), point mutant in the IgV domain; source: HEK293F, transfected, on cells) VIHVTKEVKEVATLACGHNVSVEELAQTRIYWQKEKKMVLTMMSGDMNIWPEYKNRTIFDITNNLSIVILALRPSDEGTYECVVLKYEKDAFKREHLAEVTLSVKADFPTPSISDFEIPTSNIRRIICSTSGGFPEPHLSWLENGEELNAINTTVSQDPETELYAVSSKLDFNMTTNHSFMCLIKYGHLRVNQTFNWNTTKQEHFPDNLLPSWAITLISVNGIFVICCLTYCFAPRCRERRRNERLRRESVRPV"
> 25%,> 25%,"hB7-1 T39A–mCherry (ligand, human, UniProt P33681 35-288, looked up, human B7-1 (CD80), point mutant in the IgV domain; source: HEK293F, transfected, on cells) VIHVAKEVKEVATLSCGHNVSVEELAQTRIYWQKEKKMVLTMMSGDMNIWPEYKNRTIFDITNNLSIVILALRPSDEGTYECVVLKYEKDAFKREHLAEVTLSVKADFPTPSISDFEIPTSNIRRIICSTSGGFPEPHLSWLENGEELNAINTTVSQDPETELYAVSSKLDFNMTTNHSFMCLIKYGHLRVNQTFNWNTTKQEHFPDNLLPSWAITLISVNGIFVICCLTYCFAPRCRERRRNERLRRESVRPV"
> 25%,–,"hB7-1 V45D–mCherry (ligand, human, UniProt P33681 35-288, looked up, human B7-1 (CD80), point mutant in the IgV domain; source: HEK293F, transfected, on cells) VIHVTKEVKEDATLSCGHNVSVEELAQTRIYWQKEKKMVLTMMSGDMNIWPEYKNRTIFDITNNLSIVILALRPSDEGTYECVVLKYEKDAFKREHLAEVTLSVKADFPTPSISDFEIPTSNIRRIICSTSGGFPEPHLSWLENGEELNAINTTVSQDPETELYAVSSKLDFNMTTNHSFMCLIKYGHLRVNQTFNWNTTKQEHFPDNLLPSWAITLISVNGIFVICCLTYCFAPRCRERRRNERLRRESVRPV"
> 25%,> 25%,"hB7-1 Y65A–mCherry (ligand, human, UniProt P33681 35-288, looked up, human B7-1 (CD80), point mutant in the IgV domain; source: HEK293F, transfected, on cells) VIHVTKEVKEVATLSCGHNVSVEELAQTRIAWQKEKKMVLTMMSGDMNIWPEYKNRTIFDITNNLSIVILALRPSDEGTYECVVLKYEKDAFKREHLAEVTLSVKADFPTPSISDFEIPTSNIRRIICSTSGGFPEPHLSWLENGEELNAINTTVSQDPETELYAVSSKLDFNMTTNHSFMCLIKYGHLRVNQTFNWNTTKQEHFPDNLLPSWAITLISVNGIFVICCLTYCFAPRCRERRRNERLRRESVRPV"
–,> 25%,"hB7-1 Y121D–mCherry (ligand, human, UniProt P33681 35-288, looked up, human B7-1 (CD80), point mutant in the IgV domain; source: HEK293F, transfected, on cells) VIHVTKEVKEVATLSCGHNVSVEELAQTRIYWQKEKKMVLTMMSGDMNIWPEYKNRTIFDITNNLSIVILALRPSDEGTYECVVLKDEKDAFKREHLAEVTLSVKADFPTPSISDFEIPTSNIRRIICSTSGGFPEPHLSWLENGEELNAINTTVSQDPETELYAVSSKLDFNMTTNHSFMCLIKYGHLRVNQTFNWNTTKQEHFPDNLLPSWAITLISVNGIFVICCLTYCFAPRCRERRRNERLRRESVRPV"
> 25%,–,"hB7-1 R63D–mCherry (ligand, human, UniProt P33681 35-288, looked up, human B7-1 (CD80), point mutant in the IgV domain; source: HEK293F, transfected, on cells) VIHVTKEVKEVATLSCGHNVSVEELAQTDIYWQKEKKMVLTMMSGDMNIWPEYKNRTIFDITNNLSIVILALRPSDEGTYECVVLKYEKDAFKREHLAEVTLSVKADFPTPSISDFEIPTSNIRRIICSTSGGFPEPHLSWLENGEELNAINTTVSQDPETELYAVSSKLDFNMTTNHSFMCLIKYGHLRVNQTFNWNTTKQEHFPDNLLPSWAITLISVNGIFVICCLTYCFAPRCRERRRNERLRRESVRPV"
